Experimental data as given in paper PMC12575793.

Target: T1, C-reactive protein (CRP) (UniProt P02741 19-224)
T1 sequence: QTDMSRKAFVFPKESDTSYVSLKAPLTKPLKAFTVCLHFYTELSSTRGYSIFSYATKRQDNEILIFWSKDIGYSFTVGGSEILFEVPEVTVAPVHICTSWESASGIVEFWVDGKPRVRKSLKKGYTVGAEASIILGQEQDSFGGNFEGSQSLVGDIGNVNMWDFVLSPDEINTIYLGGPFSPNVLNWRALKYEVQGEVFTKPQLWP
Experiment: fluorescence recovery from graphene oxide

B1: FAM-labeled CRP aptamer (ssDNA)
DNA: GGCAGGAAGACAAACATATAATTGAGATCGTTTGATGACTTTGTAAGAGTGTGGAATGGTCTGTGGTGCTGT
  binding result: binds
